Experimental data from paper PMC3375269 (2012).

B1: Muscarinic toxin 1 (MT1) (protein)
chain: LTCVTSKSIFGITTENCPDGQNLCFKKWYYIVPRYSDITWGCAATCPKPTNVRETIRCCETDKCNE
B2: Muscarinic toxin 7 (MT7) (protein)
chain: LTCVKSNSIWFPTSEDCPDGQNLCFKRWQYISPRMYDFTRGCAATCPKAEYRDVINCCGTDKCNK

Experiments:
[1] = molecular target: T1, Muscarinic acetylcholine receptor M4 (Homo sapiens, UniProt P08173); assay: [3H]-NMS equilibrium inhibition binding
T1 chain: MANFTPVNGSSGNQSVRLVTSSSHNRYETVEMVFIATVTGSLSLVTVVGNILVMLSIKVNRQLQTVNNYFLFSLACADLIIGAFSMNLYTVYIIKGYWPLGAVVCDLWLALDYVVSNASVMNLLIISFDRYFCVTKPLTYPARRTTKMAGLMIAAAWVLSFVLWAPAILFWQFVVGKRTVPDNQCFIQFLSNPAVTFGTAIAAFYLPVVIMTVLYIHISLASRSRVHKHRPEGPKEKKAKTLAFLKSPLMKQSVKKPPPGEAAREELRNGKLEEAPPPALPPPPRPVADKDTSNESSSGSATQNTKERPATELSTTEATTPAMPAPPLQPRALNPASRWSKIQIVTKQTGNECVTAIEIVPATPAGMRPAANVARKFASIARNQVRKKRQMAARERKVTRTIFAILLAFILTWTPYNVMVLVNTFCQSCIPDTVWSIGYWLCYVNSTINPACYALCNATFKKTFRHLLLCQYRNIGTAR

[2] = molecular target: T2, Muscarinic acetylcholine receptor M1 (Homo sapiens, UniProt P11229); assay: [3H]-NMS equilibrium inhibition binding
T2 chain: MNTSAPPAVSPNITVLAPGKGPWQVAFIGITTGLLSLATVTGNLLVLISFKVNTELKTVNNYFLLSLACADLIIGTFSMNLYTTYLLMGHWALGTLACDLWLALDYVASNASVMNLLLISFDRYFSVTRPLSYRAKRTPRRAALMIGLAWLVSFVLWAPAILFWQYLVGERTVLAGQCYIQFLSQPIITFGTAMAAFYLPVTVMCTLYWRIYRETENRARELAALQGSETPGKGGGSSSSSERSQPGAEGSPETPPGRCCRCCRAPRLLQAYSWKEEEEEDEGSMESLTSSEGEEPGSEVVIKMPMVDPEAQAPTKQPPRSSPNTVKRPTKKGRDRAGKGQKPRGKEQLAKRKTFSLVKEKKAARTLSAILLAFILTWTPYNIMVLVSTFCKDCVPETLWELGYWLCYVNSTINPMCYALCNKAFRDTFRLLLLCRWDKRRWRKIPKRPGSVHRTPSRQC

alpha1A-adrenoceptor = molecular target: T3, alpha1A-adrenoceptor (Homo sapiens, UniProt P35348); assay: [3H]-Prazosin equilibrium inhibition binding
T3 chain: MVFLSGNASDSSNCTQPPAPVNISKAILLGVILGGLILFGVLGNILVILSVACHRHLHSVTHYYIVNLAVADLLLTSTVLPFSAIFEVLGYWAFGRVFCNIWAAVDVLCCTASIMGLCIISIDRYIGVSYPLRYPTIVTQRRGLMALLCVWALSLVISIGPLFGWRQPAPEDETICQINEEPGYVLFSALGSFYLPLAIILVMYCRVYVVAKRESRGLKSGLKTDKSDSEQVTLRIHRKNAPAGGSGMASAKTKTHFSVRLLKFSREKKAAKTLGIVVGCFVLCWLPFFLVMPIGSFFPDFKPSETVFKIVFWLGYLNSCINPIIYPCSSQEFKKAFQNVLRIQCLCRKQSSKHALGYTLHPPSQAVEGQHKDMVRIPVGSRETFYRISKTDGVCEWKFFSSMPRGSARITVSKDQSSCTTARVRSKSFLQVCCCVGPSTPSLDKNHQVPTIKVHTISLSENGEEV

Binder	Ki [1]	Ki [2]	Ki (alpha1A-adrenoceptor)
B1	310 nM	24 nM	62 nM
B2	13000 nM	0.034 nM	> 20000 nM
